Conditions in all cases: both partners purified
Experiment [1] concerns the target T1, NPNA4 peptide, biotinylated at the C-terminus (BLI) (Plasmodium falciparum (isolate 3D7).).
T1 construct: source: synthetic peptide (InnoPep Inc)
T1 chain: NPNANPNANPNANPNA-biotin
Description: BLI. Background: In BLI a coated tip is dipped into the sample, and binding shifts an interference pattern.

The next experiment has as its target T2, NPNA4 peptide (Plasmodium falciparum (isolate 3D7)., not fully specified).
T2 construct: source: synthetic peptide (InnoPep Inc, purity >=97%)
T2 chain: NPNANPNANPNANPNA
Description: BLI.

The next experiment concerns the target T3, NPNA8 peptide (Plasmodium falciparum (isolate 3D7)., not fully specified).
T3 construct: source: synthetic peptide (InnoPep Inc, purity >=97%)
T3 chain: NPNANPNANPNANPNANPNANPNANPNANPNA
Description: BLI.

Experiment [2] concerns the target T4, NPNA8 peptide (used for cryo-EM with Fab 227) (Plasmodium falciparum, not fully specified).
T4 construct: source: synthetic peptide (InnoPep Inc)
T4 chain: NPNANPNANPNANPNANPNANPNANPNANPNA
Description: cryo-EM structure; saturating amounts of Fab incubated with rsCSP (or NPNA8 for Fab 227) overnight at 4 °C, complex purified by SEC (Superose 6 Increase, TBS), single particle cryo-EM. For orientation: Size exclusion chromatography separates by hydrodynamic size, large species first.

The target of experiment [3] is T4, NPNA8 peptide (used for cryo-EM with …). The description is as above.

Ends that are not written are not given here.

B1: Fab 239R, germline-reverted mutant of 239 (Fab, V domains shown)
VH: QVQLVESGGGVVQPGRSLRLSCAASRLTFSSYGMHWVRQTPGKGLEWVAVIWHDGSNKFYADSVKGRFTISRDNSKNTLYLQMNSLRDEDTAIYYCAKDWGGASDRVFDYWGRGTLVIVSS
VL: DIQMTQSPSTLSASVGDRVTITCRASQSVSTSLAWYQQKPGKAPNLLIYQASTLYTGVPSRFSGSGSGTEFTLTIGSLQPDDFATYYCQHYNSYSRITFGQGTRLEIK
notes: source: ExpiCHO cells, purified (mAb Select PrismA or Capture Select, SEC)
Consider B1, for which, in experiment [1], the “fold change of apparent affinity against 239” value was about 2 fold.

B2: 239R Fab (Fab, V domains shown)
VH: QVQLVESGGGVVQPGRSLRLSCAASRLTFSSYGMHWVRQTPGKGLEWVAVIWHDGSNKFYADSVKGRFTISRDNSKNTLYLQMNSLRDEDTAIYYCAKDWGGASDRVFDYWGRGTLVIVSS
VL: DIQMTQSPSTLSASVGDRVTITCRASQSVSTSLAWYQQKPGKAPNLLIYQASTLYTGVPSRFSGSGSGTEFTLTIGSLQPDDFATYYCQHYNSYSRITFGQGTRLEIK
notes: also called Fab239R; 239 FabR; source: ExpiCHO cells, purified (mAb Select PrismA or Capture Select, SEC)
Broadly, the Kd is the constant that tells how readily two partners part at equilibrium. A high value points to a looser complex. In the case of B2, the Kd was found to be 165 nM with NPNA4 peptide and 205 nM with NPNA8 peptide.

B3: Fab 356R, germline-reverted mutant of 356 (Fab, V domains shown)
VH: QVQLVESGGGVVQPGRSLRLSCAASGFTFSSYGMHWVRQTPGKGLEWVAVIWHDGSNKFYADSVKGRFTISRDNSKNMIYLQMNSLRVEDTAIYYCARDSLFYDHDNSGYYGYWGQGTLVTVSS
VL: EIVMTQSPATVSVSPGERATLSCRASQSVTSKLAWYQQKPGQAPRLLIYGASTRATGIPARFSGSGSGTEFTLTISSLQSEDFAVYFCQQYNNGFTFGPGTKVDFK
notes: as for B1
As to B3, in experiment [1], the “fold change of apparent affinity against 356” value is about 2 fold.

B4: 364 Fab (Fab, V domains shown)
VH: QVQLVESGGGVVQPGGSLRLSCAASGFTFSGYGMHWVRQVPGKGLEWVAIIWFDGSQKYYADSVQGRFTISRDNSKKTLFLRMNSLRAEDTAVYYCAKVHDDEPTQDYWGQGTLVTVSS
VL: DIQMTQSPSTLSASVGDRVTITCRASQGISTSLAWYQQKPGKAPKLLIYKASSLESGVPSRFSGSGSGTEFTLTITSLQPEDFATYYCQQYKRYWTFGQGTKVEIK
notes: as for B1
In the case of B4, the Kd in the experiment with NPNA4 peptide came out at 260 nM; with NPNA8 peptide, 4.88 nM.

B5: 311R Fab (Fab, V domains shown)
VH: QVQLVESGGGVVPPGRSLRLSCATSGFTFSSYGMHWVRQAPGKGLEWVAIIWYDGSNKFYAASVKGRFTISRDNSKNTLYLQMNSLRVEDTAVYYCARAAYYDTSGYGDYWGQGTLVTVSS
VL: QSVLTQPPSVSGAPGQTVTISCTGGSSNIGAGYDVHWYQQLPGTAPKLLIYGNINRPSGVPDRFSGSKSGTSASLAITGLQAEDEADYYCQSYDSSLSGSWVFGGGTKLTVL
notes: also called Fab311R; germline-reverted 311; source: ExpiCHO cells, purified (mAb Select PrismA or Capture Select, SEC)
Take B5: the Kd with NPNA4 peptide was 131 nM; in the experiment with NPNA8 peptide, 401 nM.

B6: Fab of mAb 227 (Fab, V domains shown)
VH: QVQLVQSGGGVVQPGRSLRLSCVTSGFTFPAFGMHWVRQAPGKGLEWVAVIWYDGSKKYYADSVRGRFTISRDNSRNTLYLQMHSLRAEDTAVYYCARVKNYESSGYSQCLDYWGQGVLVTVAS
VL: QSVLTQPPSVSGAPGQRVTISCTGSSSNIGAGYDVHWYQQLPGTAPKLLIYGNGNRPSGVPDRFSGSKSGTSVSLAITGLQAEDEADYYCQSYDSSLSAFVFGTGTKVTVL
notes: also called 227 Fab; source: ExpiCHO cells, purified (mAb Select PrismA or Capture Select, SEC)
A word on the stoichiometry N: it is the number of molecules, sites or subunits per partner or assembly. On to B6, for which the figures for the “stoichiometry N” value in experiment [2] and in experiment [3] were 4 Fabs per NPNA8 disc and 8 Fabs bound, respectively.

For the origin of these results see article PMC10382551, “Affinity-matured homotypic interactions induce spectrum of PfCSP structures that influence protection from malaria infection” (Nature Communications, 2023).
